What was measured:
[1] = biological target: N-terminally 3xFLAG-tagged G64D mutant ZIP13 (human); assay: native gel or EMSA; blue native-PAGE of lysates of 293T cells expressing F-WT or F-G64D
[2] = biological target: the molecule itself; assay: as above

N-terminally 3xFLAG-tagged G64D mutant ZIP13 (natural protein)
stoichiometry N [1]: 2

B1: N-terminally 3xFLAG-tagged wild-type ZIP13 (natural protein, human, UniProt Q96H72 1-371, looked up)
chain: MPGCPCPGCGMAGPRLLFLTALALELLERAGGSQPALRSRGTATACRLDNKESESWGALLSGERLDTWICSLLGSLMVGLSGVFPLLVIPLEMGTMLRSEAGAWRLKQLLSFALGGLLGNVFLHLLPEAWAYTCSASPGGEGQSLQQQQQLGLWVIAGILTFLALEKMFLDSKEEGTSQAPNKDPTAAAAALNGGHCLAQPAAEPGLGAVVRSIKVSGYLNLLANTIDNFTHGLAVAASFLVSKKIGLLTTMAILLHEIPHEVGDFAILLRAGFDRWSAAKLQLSTALGGLLGAGFAICTQSPKGVVGCSPAAEETAAWVLPFTSGGFLYIALVNVLPDLLEEEDPWRSLQQLLLLCAGIVVMVLFSLFVD
notes: ZIP13 (SLC39A13) zinc transporter, human, wild type; construct as previously described (Fukada et al, 2008); The 3xFLAG precedes the signal peptide; also called F-WT; F-ZIP13; source: 293T, transfected, in lysate; not shown: 3xFLAG, N-terminal, kept
stoichiometry N [2]: 2
